Assay results from patent US20180258181A1 (Bayer, published 2018).

B1: MF-428 (antibody, V domains shown)
VH: QVQLVESGGGLVQPGGSLRLSCAASGFTFSTYAMSWVRQAPGKGLEWVSFISGYGSSTYYADSVKGRFTISRDNSKNTLYLQMNSLRAEDTAVYYCARKMYWWSDGFDYWGQGTLVTVSS
VL: DIELTQPPSVSVAPGQTARISCSGDNLRSKYAHWYQQKPGQAPVLVIYSKDNRPSGIPERFSGSNSGNTATLTISGTQAEDEADYYCSSWAHDHKVFGGGTKLTVLG
B2: MF-L IgG (antibody, V domains shown)
VH: QVQLVESGGGLVQPGGSLRLSCAASGFTFSDYAMSWVRQAPGKGLEWVSAIMYDSSSTFYADSVKGRFTISRDNSKNTLYLQMNSLRAEDTAVYYCARINYIYKGVHFDYWGQGTLVTVSS
VL: DIVLTQSPATLSLSPGERATLSCRASQIVSGYLAWYQQKPGQAPRLLIYGASSRATGVPARFSGSGSGTDFTLTISSLEPEDFATYYCQQYYNFSFTFGQGTKVEIKR
B3: MF-T IgG (antibody, V domains shown)
VH: QVELVQSGAEVKKPGESLKISCKGSGYSFTSYWIGWVRQAPGKGLEWMGIIDPGDSRTRYSPSFQGQVTISADKSISTAYLQWSSLKASDTAMYYCARGQLYGGTYMDGWGQGTLVTVSS
VL: DIALTQPASVSGSPGQSITISCTGTSSDIGGYNSVSWYQQHPGKAPKLMIYGVNNRPSGVSNRFSGSKSGNTASLTISGLQAEDEADYYCSSYDIESATPVFGGGTKLTVLG
B4: MF-226 IgG (antibody, V domains shown)
VH: QVELVQSGAEVKKPGASVKVSCKASGYTFTGNYINWVRQAPGQGLEWMGIINPHGGDTKYAQKFQGRVTMTRDTSISTAYMELSSLRSEDTAVYYCARWHHGTWIFDYWGQGTLVTVSS
VL: DIVLTQPPSVSGAPGQRVTISCSGSSSNIGSNYVSWYQQLPGTAPKLLIYNDNQRPSGVPDRFSGSKSGTSASLAITGLQSEDEADYYCSTYDRRTFSVFGGGTKLTVLG

Key:
[1] = biological target: T1, human mesothelin (recombinant, soluble, purified; 40 kDa C-terminal polypeptide of the mesothelin precursor) (human, UniProt Q13421 296-598, limits assumed); test: Biacore pairwise binding, mesothelin (50 nM) captured by immobilized MF-T, second antibody 200 nM
T1 construct: also called soluble mesothelin
T1 sequence (Q13421 other isoform, or with tags, fused parts or gaps limits assumed): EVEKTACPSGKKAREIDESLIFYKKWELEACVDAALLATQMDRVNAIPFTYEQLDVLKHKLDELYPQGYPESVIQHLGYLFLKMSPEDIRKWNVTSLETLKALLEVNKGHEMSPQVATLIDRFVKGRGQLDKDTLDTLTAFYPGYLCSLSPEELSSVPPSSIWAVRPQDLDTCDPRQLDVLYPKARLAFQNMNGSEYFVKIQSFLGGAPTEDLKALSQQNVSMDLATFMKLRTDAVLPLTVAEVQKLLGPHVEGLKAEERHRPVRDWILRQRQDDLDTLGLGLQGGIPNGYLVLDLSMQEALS
Protocol: Competitive binding of pairs of antibodies was determined by immobilizing one antibody to the sensor chip, binding soluble mesothelin to this antibody and immediately binding a second antibody to mesothelin. Pairs of antibodies which recognize the same or overlapping epitopes on mesothelin cannot bind simultaneously. All combinations of antibody pairs were tested. Representative data for MF-T are shown (A). Panel B depicts the relative positions of epitopes of seven anti-mesothelin antibodies, in which competition is depicted by overlapping circles.
Epitope grouping experiments were performed using Biacore by monitoring simultaneous binding of pairs of anti-mesothelin antibodies to immobilized mesothelin. Briefly, the first antibody was covalently immobilized to the sensor chip through primary amine coupling using n-hydroxysuccinamide ([…]) and N-ethyl-N′-dimethylaminopropyl carbodiimide (EDC). Unoccupied binding sites on the surface were then blocked with ethanolamide. Soluble mesothelin was captured on the surface via the immobilized antibody, therefore, the epitope of the capture antibody is blocked for all bound mesothelin molecules. A second antibody was immediately passed over the surface to bind to the immobilized mesothelin. Two antibodies recognizing the same or overlapping epitopes cannot bind to the mesothelin, whereas antibodies with distinct epitopes are able to bind. […]

[2] = biological target: T2, mesothelin on CHO-A9 cells (CHO-K1 stably transfected with the GPI-anchored C-terminal part of mesothelin) (Homo sapiens (Human), UniProt Q13421 287-598, GPI anchor); test: live cell ELISA, IgG1 on CHO-A9 cells
T2 construct: In the immunoblots the protein stood in a denatured cell extract; also called mesothelin-expressing CHO-A9 cells
T2 sequence (Q13421 other isoform, or with tags, fused parts or gaps limits assumed): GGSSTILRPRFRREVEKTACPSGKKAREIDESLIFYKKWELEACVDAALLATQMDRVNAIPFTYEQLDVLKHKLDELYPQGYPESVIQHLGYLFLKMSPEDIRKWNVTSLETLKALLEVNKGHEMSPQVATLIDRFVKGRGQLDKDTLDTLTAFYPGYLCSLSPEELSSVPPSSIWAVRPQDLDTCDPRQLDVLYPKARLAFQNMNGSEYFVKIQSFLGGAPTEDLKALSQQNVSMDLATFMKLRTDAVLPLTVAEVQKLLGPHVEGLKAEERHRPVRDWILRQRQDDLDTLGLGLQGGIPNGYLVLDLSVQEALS

[3] = biological target: T2, mesothelin on CHO-A9 cells (CHO-K1 …); test: FACS with Scatchard analysis, IgG1 on CHO-A9 cells

Binder	binding result [1]	EC50 [2] [nM]	EC50 [3] [nM]
B1	binds	–	–
B2	–	0.8	0.07
B3	–	1.5	0.27
B4	–	0.4	0.15
